Experimental findings from PMC3282699, “S. pombe Kinesins-8 Promote Both Nucleation and Catastrophe of Microtubules” (PLoS ONE, 2012) are described below.

For one series, the target named is Klp6_(440)His (S. pombe) (UniProt O59751).
For the next series, the target named is T1, Klp5FLGST (S. pombe, UniProt O14343 1-883).
T1 construct: Klp5, kinesin-8 of S. pombe, amino acids 1-883; it was only obtained co-expressed with Klp6FLHis; The cloning of this plasmid is not described in the methods; also called full-length Klp5; not shown: GST, C-terminal, kept
T1 sequence (looked up): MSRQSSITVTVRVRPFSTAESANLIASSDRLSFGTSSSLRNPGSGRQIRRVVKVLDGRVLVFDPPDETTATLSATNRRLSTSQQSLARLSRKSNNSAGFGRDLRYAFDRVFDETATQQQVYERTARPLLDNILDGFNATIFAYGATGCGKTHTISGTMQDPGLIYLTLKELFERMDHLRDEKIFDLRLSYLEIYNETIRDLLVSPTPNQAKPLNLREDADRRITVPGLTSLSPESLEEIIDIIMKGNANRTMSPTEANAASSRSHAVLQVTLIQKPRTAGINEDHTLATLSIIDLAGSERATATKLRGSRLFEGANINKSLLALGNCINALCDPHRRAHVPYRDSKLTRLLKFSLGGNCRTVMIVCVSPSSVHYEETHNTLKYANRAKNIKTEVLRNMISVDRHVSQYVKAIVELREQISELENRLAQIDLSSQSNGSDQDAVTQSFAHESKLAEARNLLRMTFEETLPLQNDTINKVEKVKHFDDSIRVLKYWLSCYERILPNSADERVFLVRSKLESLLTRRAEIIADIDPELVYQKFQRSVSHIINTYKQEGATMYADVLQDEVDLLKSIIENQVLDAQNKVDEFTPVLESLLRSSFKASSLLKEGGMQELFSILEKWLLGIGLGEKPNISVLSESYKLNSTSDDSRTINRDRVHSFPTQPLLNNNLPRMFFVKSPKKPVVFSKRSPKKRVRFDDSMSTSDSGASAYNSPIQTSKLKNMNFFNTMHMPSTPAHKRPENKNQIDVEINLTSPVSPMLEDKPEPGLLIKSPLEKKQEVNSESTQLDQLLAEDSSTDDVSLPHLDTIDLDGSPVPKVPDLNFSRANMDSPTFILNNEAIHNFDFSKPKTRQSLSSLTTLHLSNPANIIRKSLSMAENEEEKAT
Briefly: pull-down; co-expressed in E. coli; sequential affinity purification from the bacterial lysate by the His tag (Ni column) and then the GST tag (eluted with 10 mM glutathione); SDS-PAGE, densitometry. The conditions noted are these: partners not purified.

In series [1] the target is S. pombe GMPCPP microtubules (S. pombe), P04688.
Series [2] deals with S. pombe tubulin heterodimer (S. pombe), P04688.
The target in series [3] is Taxol stabilised pig brain microtubules (pig) (UniProt P02550).
Series [4] deals with the molecule itself. Briefly: SEC; Superose-12 HR 10/300 GL at 4°C, 0.5 ml/min, 100 mM PIPES, 200 mM NaCl, 1 mM MgCl2, 2 mM EDTA, pH 6.9; elution compared with Ovalbumin (43 kDa) and Bovine Serum Albumin (67 kDa).
Series [5] concerns the target S. pombe single isoform (α1β) tubulin heterodimer (S. pombe) (UniProt P04688). Briefly: SEC; 15 µM tubulin with 10.7 µM dimeric Klp6_(440)His incubated at 4°C for 30 min in 80 mM PIPES, 2.5 mM MgCl2, 1 mM EDTA, 1.5 mM GMPCPP, 1 mM DTT pH 6.9; Superose-12 at 4°C; fractions on SDS-PAGE, fluorescent stain quantified. (Size exclusion chromatography separates by hydrodynamic size, large species first.)

Series [6] has as its target S. pombe GMPCPP microtubules (S. pombe) (UniProt P04688).
Series [7] deals with S. pombe tubulin heterodimer (S. pombe) (UniProt P04688).
Series [8] has as its target pig brain tubulin heterodimer (pig) (UniProt P02550).

S. pombe tubulin heterodimer (S. pombe), P04688, sequence (P04688 whole entry, chain 1 of 2): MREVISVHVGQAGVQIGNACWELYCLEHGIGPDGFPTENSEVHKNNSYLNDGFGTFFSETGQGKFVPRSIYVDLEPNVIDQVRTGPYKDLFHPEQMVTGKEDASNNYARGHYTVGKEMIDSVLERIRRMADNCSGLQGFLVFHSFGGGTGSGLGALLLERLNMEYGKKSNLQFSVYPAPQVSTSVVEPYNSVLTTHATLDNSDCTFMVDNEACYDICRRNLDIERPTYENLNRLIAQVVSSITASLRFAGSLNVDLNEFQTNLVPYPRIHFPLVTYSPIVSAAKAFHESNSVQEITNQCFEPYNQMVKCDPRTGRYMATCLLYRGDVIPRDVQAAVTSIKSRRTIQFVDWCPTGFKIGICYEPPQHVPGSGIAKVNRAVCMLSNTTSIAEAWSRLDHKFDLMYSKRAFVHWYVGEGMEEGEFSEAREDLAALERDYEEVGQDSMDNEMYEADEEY
S. pombe tubulin heterodimer (S. pombe), P04688, sequence (P05219 whole entry, chain 2 of 2, further chain): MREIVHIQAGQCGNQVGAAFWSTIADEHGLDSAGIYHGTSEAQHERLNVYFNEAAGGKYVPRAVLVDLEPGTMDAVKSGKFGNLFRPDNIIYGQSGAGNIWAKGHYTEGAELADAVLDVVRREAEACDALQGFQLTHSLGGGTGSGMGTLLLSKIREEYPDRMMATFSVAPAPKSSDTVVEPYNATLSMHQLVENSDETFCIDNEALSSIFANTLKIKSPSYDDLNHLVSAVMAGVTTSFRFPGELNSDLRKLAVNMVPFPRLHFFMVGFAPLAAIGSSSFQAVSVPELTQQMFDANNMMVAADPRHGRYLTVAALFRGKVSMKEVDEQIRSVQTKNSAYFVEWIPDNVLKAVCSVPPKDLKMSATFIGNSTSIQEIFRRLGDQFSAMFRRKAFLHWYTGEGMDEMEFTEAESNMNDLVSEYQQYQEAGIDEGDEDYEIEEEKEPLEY
S. pombe tubulin heterodimer (S. pombe), sequence (P04688 whole entry, chain 1 of 2): as the sequence (P04688 whole entry, chain 1 of 2) above
S. pombe tubulin heterodimer (S. pombe), sequence (P05219 whole entry, chain 2 of 2, further chain): as the sequence (P05219 whole entry, chain 2 of 2, further chain) above
pig brain tubulin heterodimer (pig), sequence (P02550 whole entry, chain 1 of 2): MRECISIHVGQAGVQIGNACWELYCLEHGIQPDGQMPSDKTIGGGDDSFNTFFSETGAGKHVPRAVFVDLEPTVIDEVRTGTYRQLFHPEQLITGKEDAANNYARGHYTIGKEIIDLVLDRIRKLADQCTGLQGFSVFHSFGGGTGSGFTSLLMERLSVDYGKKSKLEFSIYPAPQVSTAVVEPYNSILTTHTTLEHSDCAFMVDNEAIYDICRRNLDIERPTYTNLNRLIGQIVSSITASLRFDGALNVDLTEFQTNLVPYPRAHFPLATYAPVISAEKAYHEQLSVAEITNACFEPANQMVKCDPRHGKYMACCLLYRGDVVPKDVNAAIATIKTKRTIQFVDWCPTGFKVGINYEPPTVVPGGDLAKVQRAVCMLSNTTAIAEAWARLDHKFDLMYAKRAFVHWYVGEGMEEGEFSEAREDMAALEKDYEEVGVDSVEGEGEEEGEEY
pig brain tubulin heterodimer (pig), sequence (Q767L7 whole entry, chain 2 of 2, further chain): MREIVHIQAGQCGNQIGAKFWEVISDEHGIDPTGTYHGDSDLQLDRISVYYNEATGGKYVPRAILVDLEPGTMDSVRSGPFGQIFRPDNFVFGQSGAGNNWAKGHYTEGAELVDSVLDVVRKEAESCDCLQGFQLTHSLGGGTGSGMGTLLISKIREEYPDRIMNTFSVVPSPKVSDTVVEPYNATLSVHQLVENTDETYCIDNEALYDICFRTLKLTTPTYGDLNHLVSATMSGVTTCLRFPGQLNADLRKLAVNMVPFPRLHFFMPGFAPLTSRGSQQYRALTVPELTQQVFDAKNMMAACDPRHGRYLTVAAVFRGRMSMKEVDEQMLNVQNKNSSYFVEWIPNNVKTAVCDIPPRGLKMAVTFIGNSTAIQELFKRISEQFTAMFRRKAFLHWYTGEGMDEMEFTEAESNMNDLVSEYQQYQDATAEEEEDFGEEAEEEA

In the case of “S. pombe tubulin heterodimer (from UniProt P04688 1-455; P05219 1-448) (complex)”, the Ki of tubulin heterodimers for inhibition of the Klp6 (440)His ATPase stimulated by 73 nM Taxol stabilised pig brain microtubules (blocked pair: m3 with m12) with Klp6_(440)His (S. pombe) turned out to be 121 nM. In the series with Klp6_(440)His (S. pombe), “pig brain tubulin heterodimer (from UniProt P02550 1-451; Q767L7 1-444) (complex)” gave a Ki of tubulin heterodimers for inhibition of the Klp6 (440)His ATPase stimulated by 73 nM Taxol stabilised pig brain microtubules (blocked pair: m3 with m12) of 175 nM.

B1: Klp6FLHis (natural protein, S. pombe, UniProt O59751 1-784, looked up)
chain: MKEGSSISVAVRVRPFTEREKGLLAETPKSKEFLGDGSLAVSNTSSNTFCTNGIRKIVRVLDDNVLIFDPPEENPLAKVQKSLLPAGKRFRDVRYAFDRLFGEEASQEDVYKGTTEPLLDSVLQGYNATVFAYGATGCGKTHTISGRPDDPGIIFLTMRALLDRVEGLKRTMNVDISVSYLEIYNEKIRDLLVQDPLSMEKPKSLNICEDAEQNVSVPGLSYFTPTNLEEVMEIIIRGNSNRTMSPTEANAVSSRSHAVLQIYITQTPKSGEKQEESESQNSHKVRSVFSFIDLAGSERASATKNRGKRLVEGANINRSLLALGNCINSLCEPRRRQHVPYRDSKLTRLLKFSLGGNCRTCMIVCISPSSEHYDETHNTLKYGNRAKNIKTKVSRNVVSVDRHVSEYVRTIYELRQKVSILQKRIAEESKQLALNKEVRKISSREIKMLDARSMLKNSFDGSRDLQKSLIEHVRTLRRIEDEITLTKMWISIAKESDAMSGHNIKSVETRLAKLYDQRSLITAKVNPEEICKTFQNSISHIVSSFKGEGADMYADMLQDDVDLLKSIIENQILDAKHESETFSSTSRKLIQNLFLLFPLLPGNAIDVNESLARAFDQLVGIVPSEPTIQVPNLIEKGKAPLLSMFEIPRSPSRFKARSPSKAARVLKKPLKKRVRFSEVPTTSSVPPVEIKNKDSKPKVEKSLDKHNMNNDRSFLVPSRDARNSLTSLSLHSNVAKNKSSHSSKWPTHTLSPIITTALKQPVRRISLVSQPLQKTGGTENTPNA
notes: Klp6, kinesin-8 of S. pombe, amino acids 1-784; also called full-length Klp6; Klp6(aa1-784)/GlyGly/6xHis tag; not shown: His6 (after a GlyGly linker), C-terminal, kept
With B1, the “molar ratio of Klp6FLHis : Klp5FLGST in the sequentially purified fraction” value in the series with Klp5FLGST came out at 3.2 Klp6FLHis per Klp5FLGST.

B2: Klp6_(440)His, O59751 1-440 (domain or fragment)
chain: MKEGSSISVAVRVRPFTEREKGLLAETPKSKEFLGDGSLAVSNTSSNTFCTNGIRKIVRVLDDNVLIFDPPEENPLAKVQKSLLPAGKRFRDVRYAFDRLFGEEASQEDVYKGTTEPLLDSVLQGYNATVFAYGATGCGKTHTISGRPDDPGIIFLTMRALLDRVEGLKRTMNVDISVSYLEIYNEKIRDLLVQDPLSMEKPKSLNICEDAEQNVSVPGLSYFTPTNLEEVMEIIIRGNSNRTMSPTEANAVSSRSHAVLQIYITQTPKSGEKQEESESQNSHKVRSVFSFIDLAGSERASATKNRGKRLVEGANINRSLLALGNCINSLCEPRRRQHVPYRDSKLTRLLKFSLGGNCRTCMIVCISPSSEHYDETHNTLKYGNRAKNIKTKVSRNVVSVDRHVSEYVRTIYELRQKVSILQKRIAEESKQLALNKEVRK
On to B2, for which the Km of the microtubule stimulated ATPase (S. pombe GMPCPP microtubules), linked assay at 25°C in series [1] was 0.056 µM. In addition, the Km of the tubulin heterodimer stimulated ATPase (S. pombe tubulin), linked assay at 25°C in series [2] came to 0.373 µM.

B3: Klp6_(440)His (domain or fragment, S. pombe, UniProt O59751 1-440, looked up)
chain: MKEGSSISVAVRVRPFTEREKGLLAETPKSKEFLGDGSLAVSNTSSNTFCTNGIRKIVRVLDDNVLIFDPPEENPLAKVQKSLLPAGKRFRDVRYAFDRLFGEEASQEDVYKGTTEPLLDSVLQGYNATVFAYGATGCGKTHTISGRPDDPGIIFLTMRALLDRVEGLKRTMNVDISVSYLEIYNEKIRDLLVQDPLSMEKPKSLNICEDAEQNVSVPGLSYFTPTNLEEVMEIIIRGNSNRTMSPTEANAVSSRSHAVLQIYITQTPKSGEKQEESESQNSHKVRSVFSFIDLAGSERASATKNRGKRLVEGANINRSLLALGNCINSLCEPRRRQHVPYRDSKLTRLLKFSLGGNCRTCMIVCISPSSEHYDETHNTLKYGNRAKNIKTKVSRNVVSVDRHVSEYVRTIYELRQKVSILQKRIAEESKQLALNKEVRK
notes: Klp6 of S. pombe, amino acids 1-440: motor domain and complete putative coiled-coil domain; Homodimer by Superose 12 gel filtration; also called Klp6(aa1-440)/GlyGly/6xHis tag; Klp440His; source: E. coli Rosetta 2 (DE3), purified (HisTrap); not shown: His6 (after a GlyGly linker), C-terminal, kept
In the case of B3, the Km of the microtubule stimulated ATPase (Taxol stabilised pig brain microtubules), linked assay at 25°C in series [3] is 0.085 µM. The stoichiometry N (usually the number of molecules, sites or subunits per partner or assembly) in series [4] was 2. For the same molecule, the stoichiometry N (tubulin heterodimer per kinesin head) in series [5] came out at 1.

B4: Klp5_(436)GST (domain or fragment)
chain: MSRQSSITVTVRVRPFSTAESANLIASSDRLSFGTSSSLRNPGSGRQIRRVVKVLDGRVLVFDPPDETTATLSATNRRLSTSQQSLARLSRKSNNSAGFGRDLRYAFDRVFDETATQQQVYERTARPLLDNILDGFNATIFAYGATGCGKTHTISGTMQDPGLIYLTLKELFERMDHLRDEKIFDLRLSYLEIYNETIRDLLVSPTPNQAKPLNLREDADRRITVPGLTSLSPESLEEIIDIIMKGNANRTMSPTEANAASSRSHAVLQVTLIQKPRTAGINEDHTLATLSIIDLAGSERATATKLRGSRLFEGANINKSLLALGNCINALCDPHRRAHVPYRDSKLTRLLKFSLGGNCRTVMIVCVSPSSVHYEETHNTLKYANRAKNIKTEVLRNMISVDRHVSQYVKAIVELREQISELENRLAQIDLSSQSN
Turning to B4, the Km of the microtubule stimulated ATPase (Taxol stabilised pig brain microtubules), linked assay at 25°C in series [3] came to 0.0278 µM.

B5: Klp5_(436) (domain or fragment)
chain: MSRQSSITVTVRVRPFSTAESANLIASSDRLSFGTSSSLRNPGSGRQIRRVVKVLDGRVLVFDPPDETTATLSATNRRLSTSQQSLARLSRKSNNSAGFGRDLRYAFDRVFDETATQQQVYERTARPLLDNILDGFNATIFAYGATGCGKTHTISGTMQDPGLIYLTLKELFERMDHLRDEKIFDLRLSYLEIYNETIRDLLVSPTPNQAKPLNLREDADRRITVPGLTSLSPESLEEIIDIIMKGNANRTMSPTEANAASSRSHAVLQVTLIQKPRTAGINEDHTLATLSIIDLAGSERATATKLRGSRLFEGANINKSLLALGNCINALCDPHRRAHVPYRDSKLTRLLKFSLGGNCRTVMIVCVSPSSVHYEETHNTLKYANRAKNIKTEVLRNMISVDRHVSQYVKAIVELREQISELENRLAQIDLSSQSN
B5: the Km of the microtubule stimulated ATPase (S. pombe GMPCPP microtubules), linked assay at 25°C in series [6] came to 0.05 µM. In addition, the Km of the tubulin heterodimer stimulated ATPase (S. pombe tubulin), linked assay at 25°C in series [7] was determined as 0.336 µM. Also, the Km of the microtubule stimulated ATPase (Taxol stabilised pig brain microtubules), linked assay at 25°C in [3] was 0.045 µM. Further, the Km of the tubulin heterodimer stimulated ATPase (pig brain tubulin), linked assay at 25°C in series [8] came out at 0.427 µM.

B6: Klp5_(436)GST, O14343 1-436 (domain or fragment)
chain: MSRQSSITVTVRVRPFSTAESANLIASSDRLSFGTSSSLRNPGSGRQIRRVVKVLDGRVLVFDPPDETTATLSATNRRLSTSQQSLARLSRKSNNSAGFGRDLRYAFDRVFDETATQQQVYERTARPLLDNILDGFNATIFAYGATGCGKTHTISGTMQDPGLIYLTLKELFERMDHLRDEKIFDLRLSYLEIYNETIRDLLVSPTPNQAKPLNLREDADRRITVPGLTSLSPESLEEIIDIIMKGNANRTMSPTEANAASSRSHAVLQVTLIQKPRTAGINEDHTLATLSIIDLAGSERATATKLRGSRLFEGANINKSLLALGNCINALCDPHRRAHVPYRDSKLTRLLKFSLGGNCRTVMIVCVSPSSVHYEETHNTLKYANRAKNIKTEVLRNMISVDRHVSQYVKAIVELREQISELENRLAQIDLSSQSN
Consider B6, for which the Km of the microtubule stimulated ATPase (S. pombe GMPCPP microtubules), linked assay at 25°C in [1] came out at 0.045 µM. Also, in series [2], the Km of the tubulin heterodimer stimulated ATPase (S. pombe tubulin), linked assay at 25°C stood at 0.108 µM.
